Data from doi:10.1101/368720.

Tests used:
[1] = target: rabbit skeletal muscle G-actin (rabbit) (UniProt P68135); experiment: ITC
[2] = target: rabbit skeletal muscle filamentous actin (rabbit) (UniProt P68135); experiment: co-sedimentation

Row | Substance | Kd [1] [nM] | stoichiometry N (occidiofungin per G-actin) [1] | Kd [2] [nM] | stoichiometry N (occidiofungin per actin monomer) [2] | stoichiometry N (phalloidin per actin monomer) [2]
1 | occidiofungin (native, unmodified) (peptide) | 1000 | 1 | 1000 | 24 | –
2 | phalloidin (peptide) | – | – | 8 | – | 0.6
